What all share (test): phosphorylase kinetics, synthetic direction
Common to all, as to assay type: biochemical, Acetivibrio thermocellus
Holding throughout (conditions): acceptor cellobiose (1), matched acceptor; apparent

Substrate in data set [1]: O=P(O)(O)O[C@H]1O[C@H](CO)[C@H](O)[C@H](O)[C@H]1O
From the text:
(§1) phosphorylase kinetics, synthetic direction on cellodextrin phosphorylase (CDP)

Substrate in data set [2]: O=P(O)(O)O[C@H]1O[C@H](CO)[C@@H](O)[C@H](O)[C@H]1O
Source text: as §1

Substrate in data set [3]: N[C@H]1[C@@H](OP(=O)(O)O)O[C@H](CO)[C@@H](O)[C@@H]1O
Source text: as §1

B1: cellodextrin phosphorylase (CDP) (Acetivibrio thermocellus) (protein)
chain: MITKVTARNNKITPVELLNQKFGNKINLGNFADAVFTDAAFKNVAGIANLPMKAPVMQVLMENCIVSKYLKQFVPDRSVCFVEEGQKFYIVLEDGQKIEVPEDVNKALKATVSDVKHWAGYLTEDGEHVIDLLKPAPGPHFYVNLLIGNRLGFKRTLQTTPKSVVDRFGRGSFRSHAATQVLATRFDMRQEENGFPANRQFYLYEDGKQIFYSALIDDNIVEATCKHSCNRTVIKYKTACNLEITRTIFLVPHKKGFPLATELQRIEIKNASDKARNLSITYTGMFGTGAVHAIFEDVTYTNVIMQSAALYNDKGEFIGITPDYYPEEFKQDTRFVTMIVRNGDEKSFPQSFCTDYNDFVGTGTLEHPAGGCNLNNKLNRKGPGFFALGAPFTVEPGKTVIIDTFTGLSSSKDNENYSDAVMLRELDNLLRYFEKSESVEETLNEIINFHENYGKYFQFNTGNKLFDSGFNRNLAFQVLYQTFMSRSFGQTQKGYREIGFREIQDLFASMYYFINIGYQDFVKELLFEWTANVYKMGYANHNFYWVGKQPGLYSDDSLWLLQAYYRYIIYTKDTSVLNEEVPVADGNNEKRAVRETLKAIIQYSACISVGDHGLPLLDLADWNDCLKIASNSIDGATKEKLYYEQLKKTNGKYGDRFMSDYSESVMNAFLLKLAIDHLAEIATLDNDTQLAQQMSELSKEVTDRIQKHAWKENFFARVLINRYKDGSYTYLGAKGDKLSADPNIDGVYFLNSFAWSVLSDVATDEQIAIMVDVIKKHLLTPYGLRLVTPADLNKIANDTATGHYFFGDRENGAVFKHASMMAVAALIKAAKKVKDNELAKEMARIAYFMIDLVLPYKNLENPFQVAGNPRICTQYINTDTGENIGPLLSGTATWLNLNLISLAGIEYTRDGISFNPILREEETQLNFTLKAPKCSYKFSITKPVGFARMESSEYELFVDGQKIDNTVIPMYTDEKEHIVTLKFK
notes: wild type, GH94, recombinant from Escherichia coli; homodimer
Turning to B1, the Km was found to be 9300 ± 1100 µM in data set [1], 3000 ± 600 µM in data set [2] and 1600 ± 200 µM in data set [3]. In addition, the kcat in data set [1] turned out to be 0.60 ± 0.02 s⁻¹; in data set [2], 16.4 ± 0.7 s⁻¹; in data set [3], 0.08 ± 0.003 s⁻¹. Also, the kcat/Km in data set [1] is 60 M⁻¹ s⁻¹; in data set [2] it was 5500 M⁻¹ s⁻¹; in data set [3], 50 M⁻¹ s⁻¹.

The values are drawn from article PMC7187349, “Preparative and Kinetic Analysis of β‐1,4‐ and β‐1,3‐Glucan Phosphorylases Informs Access to Human Milk Oligosaccharide Fragments and Analogues Thereof” (Chembiochem, 2019).
